Reference: article doi:10.1101/736868 (bioRxiv, 2019)

Target: the molecule itself
Experiment: SEC-MALS; SEC-MALLS, S-200 Superdex 10/300, 0.5 ml/min, 1x PBS (legend: TBS), protein at 33 µM; monomer and dimer

B1: purified recombinant mouse CAVII protein (mCAVII) (enzyme, UniProt Q9ERQ8 1-264, looked up)
chain: MTGHHCWGYGQDDGPSNWHKLYPIAQGDRQSPINIISSQAVYSPSLQPLELFYEACMSLSITNNGHSVQVDFNDSDDRTVVSGGPLEGPYRLKQLHFHWGKKRDMGSEHTVDGKSFPSELHLVHWNAKKYSTFGEAAAAPDGLAVVGVFLETGDEHPSMNRLTDALYMVRFKDTKAQFSCFNPKCLLPTSRHYWTYPGSLTTPPLSESVTWIVLREPIRISERQMEKFRSLLFTSEDDERIHMVDNFRPPQPLKGRVVKASFQA
notes: carbonic anhydrase VII, mouse; theoretical size of the monomer printed as 30.5 kDa; also called carbonic anhydrase VII; source: CHOEBNALT85 cell line, produced as a secreted protein, purified
  stoichiometry N: 2
